Laboratory results from patent US10809222B2, “Opioid detection based on high quality graphene transistor arrays and a synthetic mu receptor” (priority 2013, dated 2020).

Legend:
[1] = target: mu receptor protein (Homo sapiens, UniProt P35372); assay: GFET sensor response (Dirac voltage shift) of mu receptor protein-functionalized graphene transistors; settings: 10 micrograms/mL, negative control of specificity, 15-25 devices
Procedure: First, the graphene was functionalized through the use of a diazonium salt. The carboxylate group was then activated by EDC and stabilized with NHS. Mu receptor protein displaced the NHS to form an amide bond.
The graphene transistor was functionalized by incubation at 55° C. in a water solution of carboxylated diazonium salt (2.0 mg/mL in DI water). Carboxylic acid groups from the diazonium functionalization were activated and stabilized with 1-ethyl-3-[3-dimethylaminopropyl]carbodiimide hydrochloride/sulfo-Nhydroxysuccinimide (EDC/NHS) at an EDC concentration of 9 mg/15 mL MES buffer and NHS concentration of 20 mg/15 mL MES buffer. NHS molecules were displaced by Mu receptor proteins (3 micrograms/mL) in buffer (40 microM NaPi/260 microM NaCl/0.00004% SDS/10 microM 2-ME/pH 7.0), forming a covalent amide bond between the protein and the graphene. The devices were then electrically characterized and then their sensitivity to opioid exposure was measured.
The source-drain current value is at a minimum at the gate voltage value at which conductance is at a minimum. The increase in Dirac voltage was defined as the sensing response (change in signal, i.e. electronic characteristic) for this ligand. […] The inset is a magnified view of this shift in the Dirac voltage.
Each concentration was tested against 15-30 devices. […]

[2] = system: mu-receptor protein; assay: Raman spectroscopy optical readout of ligand binding on mu-receptor-protein-functionalized GFET; design: species or system human
Text: Raman spectroscopy of the graphene layer in a functionalized GFET was used as an optical readout method to detect ligand binding. […]
A similar shift is seen in the 2D peak in FIG. 8c. No shifts were seen after exposure to pure buffer as a negative control, in FIGS. 8d and 8e.

[3] = Secondary structure content by circular dichroism; format: physicochemical
Text: The CD spectra indicated predominantly helical structures with a helical secondary structure content of ˜48% (estimations based on the molar ellipticity over the range 205 to 260 nm). The comparison of the helical content with that of the native human MUR expressed in yeast system in the presence of high concentration of detergent (0.1% SDS) is presented in Table 1.

[4] = system: human μ opioid receptor expressed in HEK293 cells; assay: Competitive TR-FRET (HTRF) binding competition assay with native MUR and naltrexone-derived fluorescent antagonist; settings: methodology described for FIG. 16
Text: FIG. 16. […] Data is used to calculate HTRF ratios, and represent the mean±standard error of mean of quadruplicates. ΔF is used for the comparison of different runs of the same assay which reflects the signal to background of the assay. ΔF=[(Ratiosample−Ratiobackgroud)/Ratiobackgroud](%).
A recently developed methodology which uses a fluorescently labeled ligand and the native MUR was used to investigate the ligand-binding capabilities of the water-soluble receptors.

[5] = Effects of denaturant (urea) and reducing agent (2-ME) by CD and intrinsic tryptophan fluorescence; format: physicochemical; settings: normalized to no denaturant
Procedure: CD and intrinsic tryptophan fluorescence were used to probe disulfide bond formation in the water-soluble variant. […] Even in 8 M urea, the protein retains some helical structure (Table 2). Upon addition of 2-ME, both the molar ellipticity and fluorescence further decreased, becoming more pronounced at the higher concentration of the reducing agent (200 mM). Thus the presence of an intramolecular disulfide bond is corroborated in the case of wsMUR-TM.

[6] = Thermostability by circular dichroism; settings: 5 mM sodium phosphate; for melting point (CD thermostability): 0.01% SDS, pH=7.0
Procedure: The secondary structure of the water-soluble variant was determined through circular dichroism (CD). Circular dichroism (CD) spectra were recorded by using CD Spectrometer (Chirascan, AppliedPhotophysics Limited, Leatherhead, United Kingdom) with a scan speed of 1 nm/s and 1 mm path length. Corresponding blanks were used for calibration for each assay and subtracted from raw data. Two data sets were recorded and averaged to increase the signal-to-noise ratio. The CDNN CD spectra deconvolution software was utilized to determine the secondary structure content of the proteins. […] Absorbance was maintained lower than 1.0 to ensure sufficient light transmission. The temperature-dependence curve was plotted using GraphPad Prism® (version 5, GraphPad Software, Inc. La Jolla).

[7] = pH 7.0 + 0.1% SDS, expressed in yeast system

mu receptor protein, sequence (P35372 whole entry, looked up): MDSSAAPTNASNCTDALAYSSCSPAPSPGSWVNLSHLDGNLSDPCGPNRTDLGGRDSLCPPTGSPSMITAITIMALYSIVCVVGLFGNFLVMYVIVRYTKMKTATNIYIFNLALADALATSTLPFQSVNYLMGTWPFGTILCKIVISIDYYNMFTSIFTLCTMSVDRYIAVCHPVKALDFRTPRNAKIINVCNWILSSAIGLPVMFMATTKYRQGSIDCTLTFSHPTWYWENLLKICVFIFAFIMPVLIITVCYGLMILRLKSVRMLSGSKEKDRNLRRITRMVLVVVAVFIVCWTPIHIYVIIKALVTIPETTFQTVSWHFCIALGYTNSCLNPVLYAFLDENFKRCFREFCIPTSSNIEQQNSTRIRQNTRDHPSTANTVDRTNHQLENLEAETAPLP

## CCOC(=O)c1ncn2c1CN(C)C(=O)c1cc(F)ccc1-2 [Flumazenil]
[1]
  sensor response (Dirac voltage shift): −0.2±0.4 V

## O=C1CC[C@@]2(O)[C@H]3Cc4ccc(O)c5c4[C@@]2(CCN3CC2CC2)[C@H]1O5 [naltrexone]
[2]; 10 ng/mL
  Average 2D peak position after analyte: 2683.19 ± 0.20
  Average G peak position after analyte: 1591.61 ± 0.13
[2]; 10 micrograms/mL
  Average 2D peak position after analyte: 2685.83 ± 0.26
  Average G peak position after analyte: 1594.39 ± 0.15

## Native MUR: native human μ receptor expressed in yeast system, in 0.1% SDS [reference compound]
[3]; [7]
  Helix content (CD 205-260 nm): 40.6%
  Others content (CD 205-260 nm): 40.5%
  Turn content (CD 205-260 nm): 18.9%

B1: wsMUR-TM+7mut: second wsMUR recombinant protein (protein)
chain: SMITAIKILEEYKKVCEEGRKGNKLVMEVIVRYTKMKTATNIYIFNLAKADALAESTLPFQSVNKLMGTWPFGTILCKKVISIDYYNMFTSIFTLCTMSVDRYIAVCHPVKALDFRTPRNAKEHNEKNWKLSSEIGKPVEKRATTKYRQGSIDCTLTFSHPTWYWEDKLKDTVFKKAFEEPVKVIKECYGLMILRLKSVRMLSGSKEKDRNLRRITRMVLVVVEVFIKCWTEIHKYVKEGKL
[4]
  binding activity / affinity with naltrexone: binding activity was also observed

B2: wsMUR-TM: transmembrane-only water-soluble human mu receptor variant (protein)
chain: SMITAIKIHEEYKKVCEEGKKGNKLVMEVIVRYTKMKTATNIYIFNLAKADALAESTLPFQSVNKLMGTWPFGTILCKKVISIDYYNMFTSIFTLCTMSVDRYIAVCHPVKALDFRTPRNAKEENEKNWKLSSEIGKPVEKKATTKYRQGSIDCTLTFSHPTWYWEDKLKDEVFKKAFEEPVKKIKECYGLMILRLKSVRMLSGSKEKDRNLRRITRMVLVVVEVFIKCWTEIHKYVKEGKLVTIPETTFQTVSWHECIAKGYKNSCENPKLYEELDENFKRCFREFC
[5]; Urea (8M) 2-ME (25 mM)
  Fluorescence Peak Intensity (%; 300-350 nm): 23.9%
  Molar Ellipticity (%; 222 nm): 25.1%
[5]; Urea (8M) 2-ME (200 mM)
  Fluorescence Peak Intensity (%; 300-350 nm): 4.5%
  Molar Ellipticity (%; 222 nm): 0.0%
[5]; Urea (8M)
  Fluorescence Peak Intensity (%; 300-350 nm): 28.4%
  Molar Ellipticity (%; 222 nm): 40.0%
[3]; pH 7.0 in NaHPO4
  Helix content (CD 205-260 nm): 48.0%
  Others content (CD 205-260 nm): 37.4%
  Turn content (CD 205-260 nm): 14.6%
[6]; pH=7.0, 10 to 90° C.
  temperature at which ellipticity (222 nm) starts to be lost significantly: ~62 °C
[6]; absence of cholesterol
  melting point (CD thermostability): 82.9 °C
[6]; presence of cholesterol
  melting point (CD thermostability): 89.3 °C
